Measured values as given in article doi:10.1101/2020.09.30.320564.

T1: La-module (La+RRM) (human, UniProt Q9BRS8 81-298)
T1 sequence: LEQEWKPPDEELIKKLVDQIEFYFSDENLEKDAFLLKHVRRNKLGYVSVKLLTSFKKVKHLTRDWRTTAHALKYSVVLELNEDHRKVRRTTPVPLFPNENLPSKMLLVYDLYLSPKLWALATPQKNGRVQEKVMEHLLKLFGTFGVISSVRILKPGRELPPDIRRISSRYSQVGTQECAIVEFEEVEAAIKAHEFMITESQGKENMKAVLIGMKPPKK

T2: La-module R121A (human, UniProt Q9BRS8 81-298, R121A)
T2 sequence: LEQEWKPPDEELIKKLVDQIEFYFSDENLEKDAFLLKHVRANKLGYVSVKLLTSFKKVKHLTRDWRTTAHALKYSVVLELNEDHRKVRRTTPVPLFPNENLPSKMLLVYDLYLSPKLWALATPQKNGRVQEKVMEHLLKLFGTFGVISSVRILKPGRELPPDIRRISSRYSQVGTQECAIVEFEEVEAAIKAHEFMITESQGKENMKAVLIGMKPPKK

T3: La-module K123A (human, UniProt Q9BRS8 81-298, K123A)
T3 sequence: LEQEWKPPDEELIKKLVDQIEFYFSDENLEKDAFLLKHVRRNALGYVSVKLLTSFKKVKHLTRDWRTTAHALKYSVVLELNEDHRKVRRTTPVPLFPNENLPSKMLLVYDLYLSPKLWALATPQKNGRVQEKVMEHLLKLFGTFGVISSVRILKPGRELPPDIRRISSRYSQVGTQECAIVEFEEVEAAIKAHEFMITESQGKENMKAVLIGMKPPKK

T4: La-module N122A (human, UniProt Q9BRS8 81-298, N122A)
T4 sequence: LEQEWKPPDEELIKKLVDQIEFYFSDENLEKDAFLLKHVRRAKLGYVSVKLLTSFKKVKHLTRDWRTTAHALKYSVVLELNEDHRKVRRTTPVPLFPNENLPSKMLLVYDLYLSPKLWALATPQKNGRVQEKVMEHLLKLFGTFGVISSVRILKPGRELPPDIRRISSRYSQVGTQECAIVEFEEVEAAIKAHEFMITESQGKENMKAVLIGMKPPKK

T5: RRM domain (human, UniProt Q9BRS8 183-298)
T5 sequence: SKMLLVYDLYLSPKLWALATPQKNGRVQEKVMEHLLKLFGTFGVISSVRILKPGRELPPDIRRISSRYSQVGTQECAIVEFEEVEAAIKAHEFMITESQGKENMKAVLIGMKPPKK


Experiments:
La-module (La+RRM) [1] = molecular target: T1, La-module (La+RRM); test: fluorescence polarization
La-module R121A = molecular target: T2, La-module R121A; test: EMSA
La-module K123A = molecular target: T3, La-module K123A; test: EMSA
La-module N122A = molecular target: T4, La-module N122A; test: EMSA
RRM domain = molecular target: T5, RRM domain; test: EMSA
La-domain = La-domain (human, UniProt Q9BRS8 81-182); test: EMSA
La-module (La+RRM) [2] = molecular target: T1, La-module (La+RRM); test: EMSA

Binder	binding result (La-module (La+RRM) [1])	binding result (La-module R121A)	binding result (La-module K123A)	binding result (La-module N122A)	binding result (RRM domain)	binding result (La-domain)	binding result (La-module (La+RRM) [2])
CACAAGGAGUCUGCAUGUCUAAGUGCUAGACAUGCUCAGCUUUGUG (structured_RNA) [α2(I) 5'SL]	binds	binds	binds	binds	no binding		
CCACAAAGAGUCUACAUGUCUAGGGUCUAGACAUGUUCAGCUUUGUGG (structured_RNA) [α1(I) 5'SL]						binds	binds
